Holding throughout (test): Kinetic parameters of FpGalNAcDeAc full length (coupled fluorescence assay, MU release)
What all share (assay type): biochemical, Flavonifractor plautii
What all share (settings): other: 100 mM NaH2PO4, pH 7.4, 37° C.

Substrate in data set [1]: CC(=O)N[C@H]1[C@H](Oc2ccc3c(C)cc(=O)oc3c2)O[C@H](CO)[C@@H](O[C@@H]2O[C@H](CO)[C@H](O)[C@H](O[C@H]3O[C@H](CO)[C@H](O)[C@H](O)[C@H]3NC(C)=O)[C@H]2O[C@@H]2O[C@@H](C)[C@@H](O)[C@@H](O)[C@@H]2O)[C@@H]1O
As for the experimental part:
(§1) All kinetic assays utilizing 4-methylumbelliferone as leaving group were performed through measurement of fluorescence. To avoid measurement errors based on the inner filter effect (Palmier 2007) standard curves were used to validate the linear range of the fluorophore.
(§2) Michaelis-Menten parameters were determined for A antigen subtype 1penta-MU in 100 mM NaH2PO4, pH 7.4 at 37° C. using the coupled assays described previously (Kwan 2015). The assay was modified to allow detection of cleavage of the subtype 1 (and later 4), by use of BgaC (Jeong 2009) instead of BgaA (Singh 2014) as β-galactosidase. In addition, since A antigen subtype 1penta-MU contains an additional galactose, the concentration of BgaC was increased to 0.2 mg/mL to compensate for its need to cleave both the Gal-β-1,3-B-GlcNAc-β-1,3-Gal-β-MU and Gal-β-MU. Further, FpGalactosaminidase was included to allow the cleavage of the galactosamine-containing intermediate. Reaction setup in 100 μl was 3 nM FpGalNacDeacetylase (4.52 nM FpGalNacDeAc_D1ext, 3.55 nM FpGalNacDeAc_D1+2) and 0.01 mg/mL FpGalactosaminidase, 0.1 mg/mL SpHex, AfcA, 0.2 mg/mL BgaC and varying concentrations of substrate (5 μM-2.5 mM). The reactions were run as a series of four with controls (no FpGalNacDeacetylase) as duplicates. The fluorescence signal (365/435 nm) resulting from MU release by hydrolysis was monitored on a Synergy H1™ plate reader (BioTek™) and converted to concentration using MU standard concentration curves determined under identical reaction conditions. Initial rates (μM/s) were determined and plotted in Grafit 7.0 to determine the kinetic parameters.
(§3) kcat/KM parameter were determined for A antigen subtype 1/2/4tetra-MU at pH 7.4 at 37° C. Reactions (total volume of 100 μL) were performed in black 96-plate wells and as coupled assays in 100 mM NaH2PO4 (pH 7.4) with 12 nM FpGalNAcDeacetylase 0.1 mg/mL SpHex, BgaC (BgaA for subtype II), AfcA, at varying concentrations of substrate (25 μM, 20 μM, 15 μM, 10 μM, 7.5 μM, 5 μM). The reactions were run as a series of four with controls (no FpGalNAcDeacetylase) as duplicates. The fluorescence signal (365/435 nm) resulting from MU release by hydrolysis was monitored on a Synergy H1™ plate reader (BioTek™) and converted to concentration using MU standard concentration curves determined under identical reaction conditions. Initial rates (μM/s) were determined and plotted in Grafit™ 7.0 to determine the kcat/KM (s^−1*mM^−1) parameters.

Substrate in data set [2]: CC(=O)N[C@H]1[C@@H](O[C@H]2[C@@H](O)[C@@H](CO)O[C@@H](O[C@H]3[C@@H](O)[C@@H](CO)O[C@@H](Oc4ccc5c(C)cc(=O)oc5c4)[C@@H]3NC(C)=O)[C@@H]2O[C@@H]2O[C@@H](C)[C@@H](O)[C@@H](O)[C@@H]2O)O[C@H](CO)[C@H](O)[C@@H]1O
As for the experimental part: as §1, §2, §3

Substrate in data set [3]: CC(=O)N[C@H]1[C@@H](O[C@H]2[C@@H](O)[C@@H](CO)O[C@@H](O[C@H]3[C@H](O)[C@@H](CO)O[C@@H](O[C@H]4[C@@H](O)[C@@H](CO)O[C@@H](Oc5ccc6c(C)cc(=O)oc6c5)[C@@H]4O)[C@@H]3NC(C)=O)[C@@H]2O[C@@H]2O[C@@H](C)[C@@H](O)[C@@H](O)[C@@H]2O)O[C@H](CO)[C@H](O)[C@@H]1O
As for the experimental part:
as §1, §2, §3

Substrate in data set [4]: CC(=O)N[C@H]1[C@@H](O[C@H]2[C@@H](O)[C@@H](CO)O[C@@H](O[C@H]3[C@H](O)[C@@H](CO)O[C@@H](Oc4ccc5c(C)cc(=O)oc5c4)[C@@H]3NC(C)=O)[C@@H]2O[C@@H]2O[C@@H](C)[C@@H](O)[C@@H](O)[C@@H]2O)O[C@H](CO)[C@H](O)[C@@H]1O
As for the experimental part: as §1, §2, §3

B1: Flavonifractor plautii GalNAcDeacetylase (FpGalNAcDeAc), full length, SEQ ID NO: 2, 4, 5 (Flavonifractor plautii) (protein)
chain: MGHHHHHHHHHHSSGADSSESALNKAPGYQDFPAYYSDSAHADDQVTHPDVVVLEEPWNGYRYWAVYTPNVMRISIYENPSIVASSDGVHWVEPEGLSNPIEPQPPSTRYHNCDADMVYNAEYDAMMAYWNWADDQGGGVGAEVRLRISYDGVHWGVPVTYDEMTRVWSKPTSDAERQVADGEDDFITAIASPDRYDMLSPTIVYDDFRDVFILWANNTGDVGYQNGQANFVEMRYSDDGITWGEPVRVNGFLGLDENGQQLAPWHQDVQYVPDLKEFVCISQCFAGRNPDGSVLHLTTSKDGVNWEQVGTKPLLSPGPDGSWDDFQIYRSSFYYEPGSSAGDGTMRVWYSALQKDTNNKMVADSSGNLTIQAKSEDDRIWRIGYAENSFVEMMRVLLDDPGYTTPALVSGNSLMLSAETTSLPTGDVMKLETSFAPVDTSDQVVKYTSSDPDVATVDEFGTITGVSVGSARIMAETREGLSDDLEIAVVENPYTLIPQSNMTATATSVYGGTTEGPASNVLDGNVRTIWHTNYAPKDELPQSITVSFDQPYTVGRFVYTPRQNGTNGIISEYELYAIHQDGSKDLVASGSDWALDAKDKTVSFAPVEAVGLELKAIAGAGGFGTAAELNVYAYGPIEPAPVYVPVDDRDASLVFTGAWNSDSNGSFYEGTARYTNEIGASVEFTFVGTAIRWYGQNDVNFGAAEVYVDGVLAGEVNVYGPAAAQQLLFEADGLAYGKHTIRIVCVSPVVDFDYFSYVGE
The term kcat/Km denotes the second-order rate constant that governs catalysis at low substrate concentration. As usually defined, the Km is the concentration of substrate that gives half-maximal velocity. In general, kcat refers to the maximal rate divided by the concentration of active sites. In the case of B1, the catalytic efficiency (kcat/Km) in data set [1] was 23.37 ± 0.71 s⁻¹ mM⁻¹; in data set [2], 33.27 ± 2.08 s⁻¹ mM⁻¹; in data set [3], 14.28 s⁻¹ mM⁻¹; in data set [4], 23.49 ± 0.63 s⁻¹ mM⁻¹. Also, the Michaelis constant (Km) in data set [3] amounted to 340 ± 35 µM. The catalytic constant (kcat) in data set [3] was 4.86 s⁻¹.

Values taken from patent US20240294895A1, “ENZYMATIC COMPOSITIONS FOR CARBOHYDRATE ANTIGEN CLEAVAGE ON DONOR ORGANS, METHODS AND USES ASSOCIATED THEREWITH” (THE UNIVERSITY OF BRITISH COLUMBIA, priority 2018, published 2024).
